According to patent US20260028608A1:
Like-named read-outs stand apart in the source and are kept apart here.

What was measured:
Assay in all cases: cell-based or functional assay
[1] = molecular target: Humira (Abbvie), human IgG1
[2] = molecular target: XGEVA (Amgen), human IgG2
[3] = molecular target: human IgG3 from Sigma (15654 Lot #SLBW0899) (human)
[4] = molecular target: human IgG4 from Abcam (ab90286 Lot #GR3180469) (human)
[5] = molecular target: Humira (Abbvie), human IgG1; remark: listed apart in the source
[6] = molecular target: XGEVA (Amgen), human IgG2; remark: listed apart in the source

Question: “IdeS (Immunoglobulin G-degrading enzyme of S. pyogenes), control polypeptide pCART124” was tested. Which Approximate EC50 value, i.e. equal amounts of scIgG and F(ab')2 (SDS-PAGE) [1] did it give?
Answer: The Approximate EC50 value, i.e. equal amounts of scIgG and F(ab')2 (SDS-PAGE) was 0.12 µg/mL.

Question: And the Conc. of enzyme for cleavage of 1st IgG1 heavy chain, IgG to scIgG (SDS-PAGE) [1]?
Answer: Its Conc. of enzyme for cleavage of 1st IgG1 heavy chain, IgG to scIgG (SDS-PAGE) is 4.5 ng/mL.

Question: What about the Conc. of enzyme for cleavage of 2nd IgG1 heavy chain, scIgG to F(ab')2 (SDS-PAGE) [1] of the same substance?
Answer: The Conc. of enzyme for cleavage of 2nd IgG1 heavy chain, scIgG to F(ab')2 (SDS-PAGE) was 400 ng/mL.

Question: And the IgG1 EC50 F(ab')2 (SDS-PAGE, visual estimate) [1]?
Answer: Its IgG1 EC50 F(ab')2 (SDS-PAGE, visual estimate) is 0.08 µg/mL.

Question: What about the IgG1 EC50 scIgG (SDS-PAGE, visual estimate) [1] of the same substance?
Answer: The IgG1 EC50 scIgG (SDS-PAGE, visual estimate) was 0.001 µg/mL.

Question: What about the fold of EC50 F(ab')2 for IgG1, IdeS against N240 [1] of the same substance?
Answer: The fold of EC50 F(ab')2 for IgG1, IdeS against N240 was 5 fold.

Question: What about the Conc. of enzyme for cleavage of 1st IgG2 heavy chain, IgG to scIgG (SDS-PAGE) [2] of the same substance?
Answer: The Conc. of enzyme for cleavage of 1st IgG2 heavy chain, IgG to scIgG (SDS-PAGE) was 40 ng/mL.

Question: What about the Conc. of enzyme for cleavage of 2nd IgG2 heavy chain, scIgG to F(ab)2 (SDS-PAGE) [2] of the same substance?
Answer: Its Conc. of enzyme for cleavage of 2nd IgG2 heavy chain, scIgG to F(ab)2 (SDS-PAGE) is 1100 ng/mL.

Question: What about the IgG2 EC50 F(ab')2 (SDS-PAGE, visual estimate) [2] of the same substance?
Answer: Its IgG2 EC50 F(ab')2 (SDS-PAGE, visual estimate) is 0.12 µg/mL.

Question: What about the IgG2 EC50 scIgG (SDS-PAGE, visual estimate) [2] of the same substance?
Answer: Its IgG2 EC50 scIgG (SDS-PAGE, visual estimate) is 0.003 µg/mL.

Question: What about the IgG3 EC50 F(ab')2 (SDS-PAGE, visual estimate) [3] of the same substance?
Answer: Its IgG3 EC50 F(ab')2 (SDS-PAGE, visual estimate) is 0.015 µg/mL.

Question: What about the IgG3 EC50 scIgG (SDS-PAGE, visual estimate) [3] of the same substance?
Answer: The IgG3 EC50 scIgG (SDS-PAGE, visual estimate) was 0.0022 µg/mL.

Question: And the IgG4 EC50 F(ab')2 (SDS-PAGE, visual estimate) [4]?
Answer: Its IgG4 EC50 F(ab')2 (SDS-PAGE, visual estimate) is 0.18 µg/mL.

Question: What about the IgG4 EC50 scIgG (SDS-PAGE, visual estimate) [4] of the same substance?
Answer: Its IgG4 EC50 scIgG (SDS-PAGE, visual estimate) is 0.002 µg/mL.

Question: What about the Conc. of enzyme for cleavage of 1st IgG1 heavy chain, IgG to scIgG (SDS-PAGE) [5] of the same substance?
Answer: The Conc. of enzyme for cleavage of 1st IgG1 heavy chain, IgG to scIgG (SDS-PAGE) was 1.5 ng/mL.

Question: And the Conc. of enzyme for cleavage of 2nd IgG1 heavy chain, scIgG to F(ab')2 (SDS-PAGE) [5]?
Answer: Its Conc. of enzyme for cleavage of 2nd IgG1 heavy chain, scIgG to F(ab')2 (SDS-PAGE) is 120 ng/mL.

Question: What about the Conc. of enzyme for cleavage of 1st IgG2 heavy chain, IgG to scIgG (SDS-PAGE) [6] of the same substance?
Answer: Its Conc. of enzyme for cleavage of 1st IgG2 heavy chain, IgG to scIgG (SDS-PAGE) is 10 ng/mL.

Question: What about the Conc. of enzyme for cleavage of 2nd IgG2 heavy chain, scIgG to F(ab)2 (SDS-PAGE) [6] of the same substance?
Answer: Its Conc. of enzyme for cleavage of 2nd IgG2 heavy chain, scIgG to F(ab)2 (SDS-PAGE) is 400 ng/mL.
